The source of these data is patent EP2100620A1.

Assay [1] addresses HLA receptor A1 (HLA-A*0101), purified from transfected human cells (human). The assay can be described thus: competitive binding assay: unlabeled test peptide against 5 nM 125I-labeled standard peptide on purified HLA with 1 uM b2m, size exclusion HPLC, 51 h incubation. To be noted: remark: other sources report otherwise. Background: Size exclusion chromatography separates by hydrodynamic size, large species first.

The target in assay [2] is HLA receptor A11 (HLA-A*1101), purified from transfected human cells (human). The assay can be described thus: competitive binding assay: unlabeled test peptide against 5 nM 125I-labeled standard peptide on purified HLA with 1 uM b2m, size exclusion HPLC, 68 h incubation.

The molecule ISEYRHYCY (modifications not checked) [… (SEQ ID NO:70), HPV 16 E6 peptide] displayed an IC50 in assay [1] of 49 nM.

For HTMLCMCCK (modifications not checked) [… (SEQ ID NO:122), HPV strain 18 E7 59-67], in assay [2], the concentration for half-maximal inhibition (IC50) turned out to be 67 nM.

As usually defined, the IC50 is the concentration needed to halve the response being measured. Lower therefore signals greater potency in that assay.
